Measurements published in article PMC2628428 (Molecular Microbiology, 2008).

Target: the molecule itself
Experiment: cross-linking

B1: CetB (natural protein, UniProt Q0P967 1-165, looked up)
chain: MSREIFLQEDSLITSKTDLKGKIVYANDDFLKYAGYTMGEVLNKPHNIVRHEEMPKTVFKYLWDYMKEGKEIFAYVKNKTKDNNYYWVFANVTPSIDVNNNIIGYYSVRRMPNKSAISTIESLYSDLLRAEQQQGLNKGVEMLKNFCKDADKTYNELIFSLQEAK
stoichiometry N: 2
